Test results published in publication doi:10.1101/2023.07.07.548106, “CXCL17 binds efficaciously to glycosaminoglycans with the potential to modulate chemokine signalling” (bioRxiv, 2023).

Molecular target: the molecule itself
Assay: reducing SDS-PAGE and Western blot; serial dilutions of recombinant CXCL17 (24-119), 1.25-10 uM, on reducing 12% Bis-Tris SDS-PAGE, blotted with anti-CXCL17; bands of 14 kDa and 28 kDa read as monomer and dimer; 28 kDa species at 5 uM and above

B1: recombinant human CXCL17 (24-119) (natural protein, UniProt Q6UXB2 24-119, looked up)
chain: LNPGVARGHRDRGQASRRWLQEGGQECECKDWFLRAPRRKFMTVSGLPKKQCPCDHFKGNVKKTRHQRHHRKPNKHSRACQQFLKQCQLRSFALPL
notes: human CXCL17, residues Leu24-Leu119 of the 119-residue precursor (Q6UXB2), without the predicted signal peptide; the commercially available form; also called Leu24-Leu119 form of CXCL17; source: bought: R&D Systems; produced in E. coli
  ratio of monomer:dimer: 3 monomer:dimer
  stoichiometry N: 2
